Measurements reported in US9127260B2.

What was measured:
[1] = target: Natuphos (Natuphos 10000L, BASF), commercial phytase
[2] = target: T1, synthetic phytase Fus5#2 (mature) (synthetic fusion of Hafnia sp. LU11047 phytase and Yersinia mollaretii ATCC 43969 phytase fragments)
T1 sequence: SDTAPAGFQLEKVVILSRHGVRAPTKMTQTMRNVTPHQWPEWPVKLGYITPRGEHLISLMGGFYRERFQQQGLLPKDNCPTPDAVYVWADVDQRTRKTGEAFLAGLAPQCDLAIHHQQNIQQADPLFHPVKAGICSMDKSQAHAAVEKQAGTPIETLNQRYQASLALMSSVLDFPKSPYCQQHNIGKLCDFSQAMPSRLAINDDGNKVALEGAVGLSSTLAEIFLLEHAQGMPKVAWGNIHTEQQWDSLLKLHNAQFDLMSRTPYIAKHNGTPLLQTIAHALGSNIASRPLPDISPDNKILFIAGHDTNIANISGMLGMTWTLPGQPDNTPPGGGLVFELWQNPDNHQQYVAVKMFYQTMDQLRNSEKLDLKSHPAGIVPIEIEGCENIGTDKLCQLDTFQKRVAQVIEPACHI

pepsin (Sigma P-7000, 445 U/mg) (from UniProt P00791) (enzyme)
Stability to pepsin (residual phytase activity after 30 min at 37 C with 10 mg/ml pepsin, pH 2, relative to a pH 5.5 reference) [1]: 20% | Stability to pepsin (residual phytase activity after 30 min at 37 C with 10 mg/ml pepsin, pH 2, relative to a pH 5.5 reference) [2]: 1%
